# How the values were obtained:
# Format in all cases: in vivo, Lewis rat
# [1] = test system: experimental autoimmune uveitis (EAU) in Lewis rats; experiment: Example 1: development of uveitis (EAU) after immunisation with IRBP, gpMBP and/or huMBP; conditions: for Maximum Score of EAU: TEFI retinal score, maximum possible 6; for clinical signs of anterior uveitis: visual score 0-3, compared to the gpMBP-administered group, data until Day 21
# Experimental: This study aimed at studying the effect, in Lewis rats, of immunisations with guinea pig myelin basic protein (gpMBP), human myelin basic protein (huMBP) and/or interphotoreceptor retinoid-binding protein with regard to development of encephalomyelitis (EAE) and/or uveitis (EAU).
# (§1) Adult female Lewis rats were randomly allocated to experimental groups and allowed to acclimatise for one week. On Day 0, animals were administered by subcutaneous injection with 200 microliters of an emulsion containing 20 micrograms of IRBP1177-1191 (Cambridge Bioscience, UK) and/or 100 micrograms of human (Fitzgerald Industries International, MA, US) or guinea pig Myelin Basic Protein (gpMBP) in incomplete Freund's adjuvant (Sigma, UK) supplemented with 5 mg/ml Mycobacterium Tuberculosis H37Ra ([…]) (Becton Dickenson, UK). From Day 0 until the end of the experiment, animals were weighed daily. From Day 0 until the end of the experiment, animals were scored daily for clinical signs of experimental autoimmune encephalomyelitis to include limpness, paresis and/or paralysis of the tail, hind limbs and/or front limbs. From Day 0 until the end of the experiment, animals were scored twice weekly for clinical signs of uveitis. On Day 21 (Groups 1, 2 and 3) or Day 28 (Groups 4 and 5), animals were culled and the following samples were dissected out and stored in tissue fixative for optional histopathology analysis: brain, spinal cord, right and left eyes.
# From Day 0 until the end of the experiment, animals were visually scored twice per week for clinical signs of anterior uveitis using the following scoring system. The maximum possible score was 3. Data were graphed (Mean±SEM).
# From Day 0 until the end of the experiment, animals were scored twice per week for clinical signs of intermediate and posterior uveitis. Retinal images were captured using TEFI in non-anaesthetised but restrained animals following pupil dilatation using Tropicamide 1% then Phenylephrine hydrochloride 2.5%. Retinal images were scored using the following system. The maximum possible score was 6. Data were graphed (Mean±SEM).
# Animals with an average score for both eyes greater than 0.5 on at least two consecutive TEFI sessions (see FIG. 2) or a score greater than 1.0 on any occasion were considered to have developed clinical signs of posterior uveitis. Based on this criterion, the incidence of EAU was:
# Due to the lack of pigmentation in the retina of Lewis rats, the scoring system below was used. This is due to the inability to identify areas of infiltration causing haziness and cuffing on a pale background. Inflammation of the optic disc could not be clearly identified and was not therefore scored, also, no structural damage was observed. Infiltration of retinal vessels could be identified by engorged appearance on a scale of 0-3, mild to severe. Retinal inflammation was identified by the appearance of small to large areas of redness caused by increase in vascularisation also on a scale of 0-3, giving a total possible score of 6.
# Clinical signs of anterior uveitis were also observed during the experiment. Data collected until Day 21 were analysed by two-way ANOVA followed by Dunnett's post-test for multiple comparisons between experimental groups.
# [2] = Example 1: bodyweights and non-specific clinical observations; conditions: Day 11 to Day 21, compared to the IRBP-administered group
# Source text: Adult female Lewis rats were randomly allocated to experimental groups and allowed to acclimatise for one week. […] From Day 0 until the end of the experiment, animals were weighed daily. From Day 0 until the end of the experiment, animals were scored daily for clinical signs of experimental autoimmune encephalomyelitis to include limpness, paresis and/or paralysis of the tail, hind limbs and/or front limbs. From Day 0 until the end of the experiment, animals were scored twice weekly for clinical signs of uveitis. On Day 21 (Groups 1, 2 and 3) or Day 28 (Groups 4 and 5), animals were culled and the following samples were dissected out and stored in tissue fixative for optional histopathology analysis: brain, spinal cord, right and left eyes.
# From Day 0 until the end of the experiment, animals were checked daily for non-specific clinical signs to include abnormal posture (hunched), abnormal coat condition (piloerection) and abnormal activity levels (reduced or increased activity).
# From Day 0 until the end of the experiment, animals were weighed daily.
# [3] = test system: experimental autoimmune encephalomyelitis (EAE) in Lewis rats; experiment: Example 1: development of experimental autoimmune encephalomyelitis (EAE) after immunisation; conditions: paralytic symptom scoring 0-6
# Experimental: as §1
# Guinea pig MBP may induce Experimental autoimmune encephalomyelitis (EAE) in Lewis rats, a model for multiple sclerosis (MS). In this experiment, severe EAE was developed in Lewis rats immunised with gpMBP alone (incidence 8/8 rats; mean max score 3.5) or in combination with IRBP peptide (incidence 8/8 rats; mean max score 3.9) using the scoring system for paralytic symptoms: 0) no abnormality, (0.5) partial tail limpness, (1) complete tail limpness, (2) one hind limb paresis, (2.5) two hind limbs paresis, (3) one hind limb paralysis, (4) two hind limb paralysis, (5) incontinence and (6) moribund.
# [4] = Lewis rats immunised SC Day 0 in CFA
Molecule,"Onset (Day) of EAU [1, 4] [days]","Incidence of EAU (clinical signs of posterior uveitis) ([1]; Lewis rats immunised SC Day 0 in CFA, TEFI score criterion, affected/total in brackets)",Maximum Score of EAU [1],clinical signs of anterior uveitis [1],bodyweight loss [2],EAE incidence [3],EAE mean max score [3],"severity of the clinical signs of EAU compared to the other immunised groups ([1]; vs IRBP (p<0.001), IRBP and gpMBP (p<0.01), IRBP and huMBP (p<0.01), huMBP (p<0.05))"
"ADGSSWEGVGVVPDV [IRBP, reference compound]",10.5 ± 0.5,100% (8/8),5.6 ± 0.3,observed from Day 11,no significant bodyweight loss,2/8,1.0,–
"gpMBP: guinea pig myelin basic protein (SEQ ID NO: 6), immunising antigen (protein, listed as Cavia porcellus) ASQKRPSQRHGSKYLATASTMDHARHGFLPRHRDTGILDSIGRFFGSDRAAPKRGSGKDSHHAARTTHYGSLPQKSQRSQDENPVVHFFKNIVTPRTPPPSQGKGRGLSLSRFSWGAEGQKPGFGYGGRADYKSKGFKGAHDAQGTLSKIFKLGGRDSRSGSPMARR",11.5 ± 0.5,–,1.1 ± 0.2,–,significant bodyweight loss,8/8,3.5,significantly lower
"huMBP: human myelin basic protein, immunising antigen (protein, UniProt P02686 1-304, looked up) Myelin basic protein: MGNHAGKRELNAEKASTNSETNRGESEKKRNLGELSRTTSEDNEVFGEADANQNNGTSSQDTAVTDSKRTADPKNAWQDAHPADPGSRPHLIRLFSRDAPGREDNTFKDRPSESDELQTIQEDSAATSESLDVMASQKRPSQRHGSKYLATASTMDHARHGFLPRHRDTGILDSIGRFFGGDRGAPKRGSGKDSHHPARTAHYGSLPQKSHGRTQDENPVVHFFKNIVTPRTPPPSQGKGRGLSLSRFSWGAEGQRPGFGYGGRASDYKSAHKGFKGVDAQGTLSKIFKLGGRDSRSGSPMARR",10.2 ± 0.7,–,4.1 ± 0.5,observed on Day 14 (p<0.0001) and Day 18 (p<0.01),no significant bodyweight loss,3/14,1.0,–

# From patent publication US20250230207A1, “COMPOSITION” (Worg Pharmaceuticals (Zhejiang) Co., Ltd., priority 2017, published 2025)
